Measurements: patent publication US20260184748A1 (University of Pennsylvania, published 2026)
Where no end group is shown, it is not given here.

Tests used:
Assay in all cases: cell-based or functional assay
OXTR = molecular target: T1, OXTR (UniProt P30559 1-389)
T1 sequence (looked up): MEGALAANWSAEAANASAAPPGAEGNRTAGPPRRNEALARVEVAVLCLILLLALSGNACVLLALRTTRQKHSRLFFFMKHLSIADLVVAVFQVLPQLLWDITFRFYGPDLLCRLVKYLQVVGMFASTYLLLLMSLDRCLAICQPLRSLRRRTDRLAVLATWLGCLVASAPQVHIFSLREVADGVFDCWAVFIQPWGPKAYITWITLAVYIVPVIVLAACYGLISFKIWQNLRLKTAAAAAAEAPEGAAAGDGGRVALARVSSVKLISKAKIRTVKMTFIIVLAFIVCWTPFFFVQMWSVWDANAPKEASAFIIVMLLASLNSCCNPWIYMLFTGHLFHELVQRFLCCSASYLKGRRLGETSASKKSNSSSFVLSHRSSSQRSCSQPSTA

AGTRL1 = molecular target: T2, AGTRL1 (UniProt P35414 1-380)
T2 sequence (looked up): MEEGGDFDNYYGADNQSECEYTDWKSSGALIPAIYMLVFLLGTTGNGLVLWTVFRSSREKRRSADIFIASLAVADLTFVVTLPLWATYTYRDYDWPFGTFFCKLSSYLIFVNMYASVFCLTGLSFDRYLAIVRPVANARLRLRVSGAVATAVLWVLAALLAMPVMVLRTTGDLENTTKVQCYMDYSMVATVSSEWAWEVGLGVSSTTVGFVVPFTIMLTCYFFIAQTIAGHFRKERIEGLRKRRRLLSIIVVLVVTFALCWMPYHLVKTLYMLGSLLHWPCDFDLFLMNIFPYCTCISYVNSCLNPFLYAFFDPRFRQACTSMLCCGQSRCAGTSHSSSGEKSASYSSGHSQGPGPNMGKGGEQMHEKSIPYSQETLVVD

HRH3 = HRH3 (UniProt Q9Y5N1 1-445, limits assumed)
Chain of HRH3 (Q9Y5N1 whole entry): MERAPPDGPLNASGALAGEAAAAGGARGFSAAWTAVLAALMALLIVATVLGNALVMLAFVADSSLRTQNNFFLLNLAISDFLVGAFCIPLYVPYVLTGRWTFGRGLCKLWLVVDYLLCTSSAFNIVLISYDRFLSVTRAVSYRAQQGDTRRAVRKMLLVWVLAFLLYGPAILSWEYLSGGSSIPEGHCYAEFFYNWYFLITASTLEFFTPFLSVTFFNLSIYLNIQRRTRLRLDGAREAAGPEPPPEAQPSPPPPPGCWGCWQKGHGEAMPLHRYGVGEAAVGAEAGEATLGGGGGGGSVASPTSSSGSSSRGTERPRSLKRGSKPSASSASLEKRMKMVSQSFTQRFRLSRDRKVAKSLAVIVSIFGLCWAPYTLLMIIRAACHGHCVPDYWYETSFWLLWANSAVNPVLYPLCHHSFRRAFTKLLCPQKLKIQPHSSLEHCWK

F2RL3 = molecular target: T3, F2RL3 (UniProt Q96RI0 18-385, limits assumed)
T3 sequence (looked up): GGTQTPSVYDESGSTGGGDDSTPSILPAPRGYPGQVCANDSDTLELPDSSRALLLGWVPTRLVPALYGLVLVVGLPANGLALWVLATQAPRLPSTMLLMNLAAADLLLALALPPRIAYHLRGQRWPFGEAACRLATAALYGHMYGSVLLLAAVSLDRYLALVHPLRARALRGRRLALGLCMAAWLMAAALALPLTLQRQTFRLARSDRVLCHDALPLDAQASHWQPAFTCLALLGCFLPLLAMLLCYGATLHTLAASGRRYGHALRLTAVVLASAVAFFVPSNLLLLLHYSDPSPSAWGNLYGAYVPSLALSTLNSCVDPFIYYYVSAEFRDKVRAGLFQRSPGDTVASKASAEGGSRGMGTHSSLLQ

CCR3 = molecular target: T4, CCR3 (UniProt P51677 1-355)
T4 sequence (looked up): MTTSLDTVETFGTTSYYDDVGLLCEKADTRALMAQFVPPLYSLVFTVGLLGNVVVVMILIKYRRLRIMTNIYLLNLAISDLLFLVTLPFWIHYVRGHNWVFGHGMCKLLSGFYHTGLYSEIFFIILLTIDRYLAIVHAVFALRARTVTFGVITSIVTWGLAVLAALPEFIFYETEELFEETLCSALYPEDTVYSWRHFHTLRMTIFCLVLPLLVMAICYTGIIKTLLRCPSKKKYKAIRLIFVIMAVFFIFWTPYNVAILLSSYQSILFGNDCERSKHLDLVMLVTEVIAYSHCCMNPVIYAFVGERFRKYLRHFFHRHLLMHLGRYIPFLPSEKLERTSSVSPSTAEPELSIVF

[1] = molecular target: T5, relaxin-3 receptor (RXFP3) (UniProt Q9NSD7 1-469)
T5 sequence (looked up): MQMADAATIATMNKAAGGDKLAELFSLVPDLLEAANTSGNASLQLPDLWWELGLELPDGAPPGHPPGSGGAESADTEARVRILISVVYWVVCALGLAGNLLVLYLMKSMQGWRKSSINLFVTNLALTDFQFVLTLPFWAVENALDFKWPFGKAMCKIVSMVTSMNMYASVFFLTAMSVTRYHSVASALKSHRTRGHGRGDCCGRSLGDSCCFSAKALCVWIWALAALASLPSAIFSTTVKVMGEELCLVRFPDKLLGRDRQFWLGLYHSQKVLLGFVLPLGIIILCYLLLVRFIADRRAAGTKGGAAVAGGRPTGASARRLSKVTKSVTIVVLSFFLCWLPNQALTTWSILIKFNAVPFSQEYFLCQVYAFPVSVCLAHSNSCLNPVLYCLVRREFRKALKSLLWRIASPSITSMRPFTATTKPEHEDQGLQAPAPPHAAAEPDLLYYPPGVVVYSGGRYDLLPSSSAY

NMU1R = molecular target: T6, NMU1R (UniProt Q9HB89 1-426, limits assumed)
T6 sequence (looked up): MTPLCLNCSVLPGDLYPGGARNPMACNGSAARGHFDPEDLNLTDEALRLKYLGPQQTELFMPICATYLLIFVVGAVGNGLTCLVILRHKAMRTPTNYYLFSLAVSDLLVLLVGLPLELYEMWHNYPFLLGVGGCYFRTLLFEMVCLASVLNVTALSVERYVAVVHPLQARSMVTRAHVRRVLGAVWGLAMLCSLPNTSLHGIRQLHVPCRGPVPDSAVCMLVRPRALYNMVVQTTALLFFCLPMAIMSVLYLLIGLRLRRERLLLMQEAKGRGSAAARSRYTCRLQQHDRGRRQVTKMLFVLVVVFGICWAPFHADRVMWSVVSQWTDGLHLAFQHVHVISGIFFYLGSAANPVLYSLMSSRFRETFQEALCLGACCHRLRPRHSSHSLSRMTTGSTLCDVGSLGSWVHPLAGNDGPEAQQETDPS

GPR120 = molecular target: T7, GPR120 (UniProt Q5NUL3 1-361, limits assumed)
T7 sequence (looked up): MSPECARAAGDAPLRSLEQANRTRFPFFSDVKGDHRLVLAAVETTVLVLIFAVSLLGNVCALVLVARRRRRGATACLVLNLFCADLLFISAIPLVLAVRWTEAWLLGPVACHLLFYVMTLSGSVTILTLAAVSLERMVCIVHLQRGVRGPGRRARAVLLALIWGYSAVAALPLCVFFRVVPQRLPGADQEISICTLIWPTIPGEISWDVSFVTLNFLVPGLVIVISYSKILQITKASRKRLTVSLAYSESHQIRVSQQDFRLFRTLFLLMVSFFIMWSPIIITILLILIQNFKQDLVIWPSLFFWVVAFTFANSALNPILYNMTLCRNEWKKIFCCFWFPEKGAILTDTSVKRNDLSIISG

QATVGDVNTDRPGLLDLK (also: synthesised on Rink amide resin, C-terminal amide not given here outright) [octadecaneuropeptide (ODN)]
% Activity, arrestin, antagonist mode, 2.5 uM (OXTR): 1.3% | % Activity, arrestin, antagonist mode, 2.5 uM (AGTRL1): -23.4% | % Activity, arrestin, antagonist mode, 2.5 uM (HRH3): -8.6% | % Activity, arrestin, antagonist mode, 2.5 uM (F2RL3): -25.9% | % Activity, arrestin, antagonist mode, 2.5 uM (CCR3): -5.8% | % Activity, arrestin, antagonist mode, 2.5 uM [1]: 31.4% | % Activity, arrestin, antagonist mode, 2.5 uM (NMU1R): -34.2% | % Activity, arrestin, antagonist mode, 2.5 uM (GPR120): 22.7%
